Assay results: patent US20200147235A1 (AbbVie / Abbott, published 2020)
Where a chain is given by its changes, count along the chain named. Where two headings read alike, the source gives them in different places.

T1: Cynomolgus monkey CD98 ECD with C-terminal His-tag (cynomolgus monkey, UniProt P08195 105-529 (human entry))
T1 construct: also called cyCD98 ECD; recombinant cynomolgus monkey CD98 extracellular domain
T1 chain: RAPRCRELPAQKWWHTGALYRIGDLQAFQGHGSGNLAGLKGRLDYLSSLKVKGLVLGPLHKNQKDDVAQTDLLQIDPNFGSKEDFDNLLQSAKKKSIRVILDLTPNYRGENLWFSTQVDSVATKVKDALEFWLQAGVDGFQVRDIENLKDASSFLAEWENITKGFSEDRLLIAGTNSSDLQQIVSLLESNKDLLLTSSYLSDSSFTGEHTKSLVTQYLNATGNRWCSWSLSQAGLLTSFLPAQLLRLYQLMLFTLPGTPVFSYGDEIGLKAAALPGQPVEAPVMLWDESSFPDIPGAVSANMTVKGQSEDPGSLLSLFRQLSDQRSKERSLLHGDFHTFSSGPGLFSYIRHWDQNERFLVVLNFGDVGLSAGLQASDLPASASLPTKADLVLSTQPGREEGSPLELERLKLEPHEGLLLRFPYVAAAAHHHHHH

T2: Human CD98 ECD with C-terminal His-tag (human, UniProt P08195 105-529)
T2 construct: also called huCD98 ECD; recombinant human CD98 extracellular domain
T2 sequence: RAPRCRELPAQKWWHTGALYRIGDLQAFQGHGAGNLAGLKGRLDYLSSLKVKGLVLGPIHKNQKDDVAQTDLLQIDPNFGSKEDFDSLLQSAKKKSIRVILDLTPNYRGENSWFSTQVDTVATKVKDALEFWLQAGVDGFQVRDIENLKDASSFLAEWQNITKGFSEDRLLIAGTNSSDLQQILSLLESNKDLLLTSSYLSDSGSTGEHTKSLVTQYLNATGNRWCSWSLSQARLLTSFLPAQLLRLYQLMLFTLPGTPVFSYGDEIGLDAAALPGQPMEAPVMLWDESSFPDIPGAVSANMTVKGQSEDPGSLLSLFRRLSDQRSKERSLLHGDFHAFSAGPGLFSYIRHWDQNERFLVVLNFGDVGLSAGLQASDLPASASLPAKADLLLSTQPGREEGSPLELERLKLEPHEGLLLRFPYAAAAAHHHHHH

T3: Human CD98 expressed on stably transfected CHO-K1 cells (human)
T3 construct: also called huCD98; CD98 heavy chain
T3 chain: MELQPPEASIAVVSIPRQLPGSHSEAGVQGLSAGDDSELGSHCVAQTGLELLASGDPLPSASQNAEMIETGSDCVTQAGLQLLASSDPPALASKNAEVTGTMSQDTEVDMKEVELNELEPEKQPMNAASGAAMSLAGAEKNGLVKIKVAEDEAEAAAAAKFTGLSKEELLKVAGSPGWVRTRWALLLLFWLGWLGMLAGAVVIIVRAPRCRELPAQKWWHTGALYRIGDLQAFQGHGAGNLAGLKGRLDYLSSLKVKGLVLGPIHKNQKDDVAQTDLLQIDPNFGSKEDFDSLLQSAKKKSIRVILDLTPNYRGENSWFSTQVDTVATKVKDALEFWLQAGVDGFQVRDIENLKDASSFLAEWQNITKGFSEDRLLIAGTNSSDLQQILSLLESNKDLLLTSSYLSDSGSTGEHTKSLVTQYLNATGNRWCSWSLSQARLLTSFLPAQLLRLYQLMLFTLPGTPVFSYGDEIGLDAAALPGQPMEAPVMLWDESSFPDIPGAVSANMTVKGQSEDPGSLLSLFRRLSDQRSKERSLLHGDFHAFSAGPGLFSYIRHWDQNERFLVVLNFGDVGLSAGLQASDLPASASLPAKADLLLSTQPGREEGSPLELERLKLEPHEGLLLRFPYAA

B1: Anti-CD98 murine hybridoma antibody Ab1 (antibody, V domains shown)
VH: EVKLVESGGGLVQPGGSLRLSCATSGFTFTDYYMSWVRQPPGKALEWLGFIRNPANVYTTEYSASVKGRFTISRDNSQSILYLQMNTLRAEDSATYYCARASYGNSEGWFAYWGQGTLVTVSA
VL: DIVMSQSPSSLAVSVGEKVTMSCKSSQNLLYNNNQKNYLAWYQQKPGQSPKLLIYWASTRESGVPDRFTGSGSGTDFTLTISSVKAEDLAVYYCQQYYSYPRTFGGGTKLEIK
B2: Recombinant anti-CD98 chimeric antibody chAb8 (antibody, human IgG1, V domains shown)
VH: EVQLVESGGGLVQPGRSLKLSCAASGFTFSDYAMAWVRQAPKKGLEWVASIIYDGRGTYYRDSVKGRFTISRDNAKSTLYLQMDSLRSEDTATYYCARQGDGTYYYWGYFDYWGQGVMVTVSS
VL: DIVMTQSPSSLAVSAGETVTINCKSSQSLLSSGNQKNYLAWYQQKPGQSPKLLIYWASTRQSGVPDRFIGSGSGTDFTLTINSVQAEDLAIYYCQQYYDTPYTFGAGTKLELK
B3: Recombinant anti-CD98 chimeric antibody chAb10 (antibody, human IgG1, V domains shown)
VH: B2 VH with G44S, S50T, Y60C, Y105H
VL: B2 VL with N82S, L110V, E111D
B4: Recombinant anti-CD98 chimeric antibody chAb12 (antibody, human IgG1, V domains shown)
VH: B2 VH with Y109S
VL: B2 VL with N82S, Y93H
B5: Recombinant anti-CD98 chimeric antibody chAb15 (antibody, human IgG1, V domains shown)
VH: B2 VH with A33T, S50T, G100S
VL: B2 VL with S31F, N82R, T100S
B6: Recombinant anti-CD98 chimeric antibody chAb11 (antibody, human IgG1, V domains shown)
VH: B2 VH with S50G
VL: B2 VL with K24R, N82S
B7: Recombinant anti-CD98 chimeric antibody chAb14 (antibody, human IgG1, V domains shown)
VH: EVKLQQSGDELVRPGASVKISCKASGYTFTSYSMHWVKERPGQGLEWIGAIFPIIGTTEYNQKFKGKATLTADKSSNTANMELSRLTSEDSAVYYCARVYLSYFDYWGQGVMVTVSS
VL: DIQMTQSPSFLSASVGDRVTINCKASQNINKYLDWYQRKHGEAPKLLIYNTNNLQTGIPSRFSGSGSGTDYTLTISSLQPEDVATYFCLQHSSRYTFGAGTKLELK

Key:
[1] = biological target: T1, Cynomolgus monkey CD98 ECD with …; experiment: SPR Biacore, anti-Fc capture of mAb, CD98 ECD analyte
Experimental: (§1) The binding kinetics of these purified mouse and rat monoclonal anti-CD98 antibodies for purified recombinant CD98 protein (extracellular domain. ECD) were determined by surface plasmon resonance-based measurements made on Biacore T100/T200 instruments (GE Healthcare, Piscataway, N.J.) at 25° C. using an anti-Fc capture assay approach. Binding kinetic measurements were made in the assay buffer HBS-EP+: 10 mM Hepes, pH 7.4, 150 mM NaCl, 3 mM EDTA, 0.05% Tween 20). For example, approximately 8000 RU of anti-Fc (species specific) polyclonal antibody (Thermo Fisher Scientific Inc. Rockford, Ill.) diluted in 10 mM sodium acetate (pH 4.5) was directly immobilized across a CM5 research grade biosensor chip using a standard amine coupling kit according to manufacturer's instructions and procedures at 25 μg/ml. Unreacted moieties on the biosensor surface were blocked with ethanolamine. The test antibody to be captured as a ligand was diluted in running buffer to ˜0.5 μg/mL and injected over anti-Fc surface at a flow rate of 10 μL/min, CD98 binding and dissociation were observed under a continuous flow rate of 80 μL/min. Human and cynomolgus monkey CD98 ECDs, both with a C-terminal His-tag, are used for this study (Table 3). After each cycle the anti-Fc capture surface was regenerated using 10 mM Glycine-HCl, pH 1.5. During the assay, all measurements were referenced against the capture surface alone (i.e., with no captured test antibody) and buffer-only injections (no antigen) were used for double referencing. For kinetic analysis, rate equations derived from the 1:1 Langmuir binding model were fitted simultaneously, globally and with mass transfer term included to multiple referenced antigen binding curves using Biacore T100T200 Evaluation software.

[2] = biological target: T2, Human CD98 ECD with C-terminal His-tag; experiment: as above
Experimental: as §1

[3] = biological target: T1, Cynomolgus monkey CD98 ECD with …; experiment: SPR Biacore, anti-Fc capture of mAb, CD98 ECD analyte; kd set to assay limit
Experimental: as §1, with “During the assay, all measurements were referenced against the capture surface alone (i.e., with no captured test antibody) and buffer-only injections (no antigen) were used for double referencing. For kinetic analysis, rate equations derived from the 1:1 Langmuir binding model were fitted simultaneously, globally and with mass transfer term included to multiple referenced antigen binding curves using Biacore T100T200 Evaluation software.” left out

[4] = biological target: T2, Human CD98 ECD with C-terminal His-tag; experiment: as above
Experimental: as §1, with “During the assay, all measurements were referenced against the capture surface alone (i.e., with no captured test antibody) and buffer-only injections (no antigen) were used for double referencing. For kinetic analysis, rate equations derived from the 1:1 Langmuir binding model were fitted simultaneously, globally and with mass transfer term included to multiple referenced antigen binding curves using Biacore T100T200 Evaluation software.” left out

[5] = biological target: T3, Human CD98 expressed on stably …; experiment: flow cytometry, CHO-K1 cells expressing human CD98
Experimental: (§2) Briefly, binding kinetics of anti-CD98 chimera mAbs for human and cynomolgus CD98 ECDs were determined by surface plasmon resonance-based measurements as described in Example 4. Table 10 reported the association and dissociation rate constants for CD98 binding, kₐ (M⁻¹s⁻¹) and kd (s⁻¹), and the equilibrium dissociation constant KD (M) of the interaction between antibodies and the target antigen. Binding of anti-CD98 chimera mAbs for CD98 on cell surface was evaluated by flow cytometry against CHO-K1 cell line stably transfected to express human CD98 and 3T12 cell line stably transfected to express cynomolgus monkey CD98.

[6] = biological target: T1, Cynomolgus monkey CD98 ECD with …; experiment: SPR Biacore, anti-Fc capture of mAb, CD98 ECD analyte
Experimental: as §1
(§3) Briefly, binding kinetics of anti-CD98 chimera mAbs for human and cynomolgus CD98 ECDs were determined by surface plasmon resonance-based measurements as described in Example 4.

[7] = biological target: T2, Human CD98 ECD with C-terminal His-tag; experiment: as above; remark: listed apart in the source
Experimental: as §1, §3

[8] = biological target: T4, Cynomolgus monkey CD98 expressed on stably transfected 3T12 cells (cynomolgus monkey); experiment: flow cytometry, 3T12 cells expressing cynomolgus CD98
T4 construct: whole, on cells; also called cyCD98
Experimental: as §2

Binder | Kd [1] | kon [1] | Kd [2] | kon [2] | koff [3] | koff [4] | EC50 [5] | Kd [6] | koff [6] | kon [6] | Kd [7] | koff [7] | kon [7] | EC50 [8]
B1 | ≤ 0.12 nM | 43000 M⁻¹ s⁻¹ | ≤ 0.059 nM | 85000 M⁻¹ s⁻¹ | ≤ 5e-06 s⁻¹ | ≤ 5e-06 s⁻¹ |  |  |  |  |  |  |  | 
B2 |  |  |  |  |  |  | 2.61 nM | 17 nM | 0.0005 s⁻¹ | 28000 M⁻¹ s⁻¹ | 4.2 nM | 0.00028 s⁻¹ | 67000 M⁻¹ s⁻¹ | 10.1 nM
B3 |  |  |  |  |  |  | 6.45 nM | 11 nM | 0.00064 s⁻¹ | 59000 M⁻¹ s⁻¹ | 3.3 nM | 0.00033 s⁻¹ | 100000 M⁻¹ s⁻¹ | 10.8 nM
B4 |  |  |  |  |  |  | 2.89 nM | 3.8 nM | 9.3e-05 s⁻¹ | 24000 M⁻¹ s⁻¹ | 1.2 nM | 6.3e-05 s⁻¹ | 54000 M⁻¹ s⁻¹ | 14.9 nM
B5 |  |  |  |  |  |  | 6.63 nM | 3.7 nM | 7.4e-05 s⁻¹ | 20000 M⁻¹ s⁻¹ | 1.1 nM | 4.6e-05 s⁻¹ | 43000 M⁻¹ s⁻¹ | 20.3 nM
B6 |  |  |  |  |  |  | 4.57 nM | 110 nM | 0.002 s⁻¹ | 18000 M⁻¹ s⁻¹ | 28 nM | 0.0013 s⁻¹ | 45000 M⁻¹ s⁻¹ | 16.9 nM
B7 |  |  |  |  |  |  | 3.75 nM | 110 nM | 0.0014 s⁻¹ | 12000 M⁻¹ s⁻¹ | 3.9 nM | 8.4e-05 s⁻¹ | 22000 M⁻¹ s⁻¹ | 18 nM
